Assay results as given in patent US20230265151A1, “GIP/GLP1 CO-AGONIST COMPOUNDS” (priority 2020, published 2023).
Substitutions are numbered along the chain they refer to. *1 amine or outer side, *2 acyl side, *3 side chain or, on linkers, in order; H or OH if unused. Where no end group is shown, it is not given here. Side-chain parts run from the residue outwards. [ ]: non-standard residue; d: D form. The star is where a group is joined. Decanoyl(10-(4-HOOC-PhO)) = O=C(O)c1ccc(OCCCCCCCCCC(=O)*)cc1; αMePhe(2-F) = C[C@](N)(Cc1ccccc1F)C(=O)O; γGlu = O=C(O)[C@H](CCC(=O)[*:2])N[*:1]; C14 diacid = O=C(O)CCCCCCCCCCCCC(=O)*; αMeY = C[C@](N)(Cc1ccc(O)cc1)C(=O)O; αMeL = CC(C)C[C@](C)(N)C(=O)O; Orn = NCCC[C@H](N)C(=O)O; AEEA = NCCOCCOCC(=O)O; Aib = CC(C)(N)C(=O)O

Legend:
Assay in all cases: cell-based or functional assay
[1] = molecular target: human GLP-1 receptor (human, UniProt P43220 24-463)
[2] = molecular target: T1, human GIP receptor (human, UniProt P48546 22-466)
T1 sequence (looked up): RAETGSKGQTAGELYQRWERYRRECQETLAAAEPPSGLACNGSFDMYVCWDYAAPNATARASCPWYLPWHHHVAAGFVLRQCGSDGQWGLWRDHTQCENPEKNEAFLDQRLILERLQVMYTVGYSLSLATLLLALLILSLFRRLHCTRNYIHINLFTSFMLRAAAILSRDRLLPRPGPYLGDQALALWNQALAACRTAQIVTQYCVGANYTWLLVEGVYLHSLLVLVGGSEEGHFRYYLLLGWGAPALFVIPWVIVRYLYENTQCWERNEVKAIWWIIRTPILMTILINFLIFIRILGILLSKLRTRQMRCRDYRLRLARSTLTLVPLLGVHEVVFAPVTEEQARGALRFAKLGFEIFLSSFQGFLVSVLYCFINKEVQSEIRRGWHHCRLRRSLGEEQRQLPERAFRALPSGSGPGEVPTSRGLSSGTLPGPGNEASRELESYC

[3] = molecular target: human GLP-1 receptor (human, UniProt P43220 24-463); remark: listed apart in the source
[4] = molecular target: T2, human GIP receptor (human, UniProt P48546 22-466); remark: listed apart in the source
T2 sequence (looked up): T1 sequence (looked up)

[5] = molecular target: human glucagon receptor (human, UniProt P47871 26-477)
[6] = molecular target: T3, human GIP receptor (human, UniProt P48546 22-466); remark: listed apart in the source
T3 sequence (looked up): T1 sequence (looked up)

B1: Example 304 (peptide)
peptide: Y[Aib]EGT[αMePhe(2-F)]TSDV[Aib]I[αMeL]LD[Orn]IAQ[Aib]EFIK([AEEA-AEEA-γGlu-C14 diacid])[αMeY]LIK([AEEA-AEEA-γGlu-C14 diacid])GGPSSGAPPPS-NH2
With B1 the “cAMP EC50 (1.0% HSA)” value [1] was 64.2 nM and the “cAMP EC50 (1.0% HSA)” value [2] was 4.83 nM.

B2: Example 308 (peptide)
peptide: Y[Aib]EGT[αMePhe(2-F)]TSDV[Aib]I[αMeL]LD[Orn]IAQ[Aib]EFIK([AEEA-AEEA-γGlu-Decanoyl(10-(4-HOOC-PhO))])[αMeY]LIK([AEEA-AEEA-γGlu-Decanoyl(10-(4-HOOC-PhO))])GGPSSGAPPPS-NH2
For B2, the “cAMP EC50 (1.0% HSA)” value [1] was 67.3 nM and the “cAMP EC50 (1.0% HSA)” value [2] was 10.5 nM.

B3: Example 339 (peptide)
peptide: YXEGTXTSDXXIXLDXIAQXEFIKXLIKGGPSSGAPPPS
modifications: Y-Aib-EGT-αMeF(2F)-TSD-4Pal-Aib-I-αMeL-LD-Orn-IAQ-Aib-EFIK((2-[2-(2-Amino-ethoxy)-ethoxy]-acetyl)-(γ-Glu)-CO-(CH2)12-CO2H)-αMeY-LIK((2-[2-(2-Amino-ethoxy)-ethoxy]-acetyl)-(γ-Glu)-CO-(CH2)12-CO2H)GGPSSGAPPPS-NH2
B3 was tested, and the “cAMP EC50 (1.0% HSA)” value [1] was 68.2 nM, the “cAMP Emax (1.0% HSA)” value [1] was 115% and the “cAMP EC50 (1.0% HSA)” value [2] was 4.35 nM.

B4: Example 460 (peptide)
peptide: B3 peptide with I17Q
modifications: Y-Aib-EGT-αMeF(2F)-TSD-4Pal-Aib-I-αMeL-LD-Orn-QAQ-Aib-EFIK((2-[2-(2-Amino-ethoxy)-ethoxy]-acetyl)3-(γ-Glu)-CO-(CH2)12-CO2H)-αMeY-LIK((2-[2-(2-Amino-ethoxy)-ethoxy]-acetyl)3-(γ-Glu)-CO-(CH2)12-CO2H)GGPSSGAPPPS-NH2
B4 was tested, and the “cAMP EC50 (1.0% HSA)” value [3] was 6.31 nM and the “cAMP EC50 (1.0% HSA)” value [4] was 0.506 nM.

B5: Example 403 (peptide)
peptide: B3 peptide with I17Q
modifications: Y-Aib-EGT-αMeF(2F)-TSD-4Pal-Aib-I-αMeL-LD-Orn-QAQ-Aib-EFIK((2-[2-(2-Amino-ethoxy)-ethoxy]-acetyl)2-(γ-Glu)-(10-(4-carboxyphenoxy)decanoyl))-αMeY-LIK((2-[2-(2-Amino-ethoxy)-ethoxy]-acetyl)2-(γ-Glu)-(10-(4-carboxyphenoxy)decanoyl))GGPSSGAPPPS-NH2
For B5, the “cAMP EC50 (1.0% HSA)” value [3] was 7.31 nM, the “cAMP EC50 (1.0% HSA)” value [4] was 0.711 nM and the “cAMP Emax (1.0% HSA)” value [4] was 91.7%.

B6: Example 411 (peptide)
peptide: B3 peptide with I17Q
modifications: Y-Aib-EGT-αMeF(2F)-TSD-4Pal-Aib-I-αMeL-LD-Orn-QAQ-Aib-EFIK((2-[2-(2-Amino-ethoxy)-ethoxy]-acetyl)2-(γ-Glu)-CO-(CH2)12-CO2H)-αMeY-LIK((2-[2-(2-Amino-ethoxy)-ethoxy]-acetyl)2-(γ-Glu)-CO-(CH2)12-CO2H)GGPSSGAPPPS-NH2
With B6 the “cAMP EC50 (1.0% HSA)” value [3] was 11.4 nM and the “cAMP EC50 (1.0% HSA)” value [4] was 1.09 nM.

B7: Example 464 (peptide)
peptide: B3 peptide with I17Q
modifications: Y-Aib-EGT-αMeF(2F)-TSD-4Pal-Aib-I-αMeL-LD-Orn-QAQ-Aib-EFIK(2-[2-(2-Amino-ethoxy)-ethoxy]-acetyl)3-(γ-Glu)-(10-(4-carboxyphenoxy)decanoyl)-αMeY-LIK((2-[2-(2-Amino-ethoxy)-ethoxy]-acetyl)3-(γ-Glu)-(10-(4-carboxyphenoxy)decanoyl)GGPSSGAPPPS-NH2)
For B7, the “cAMP EC50 (1.0% HSA)” value [3] was 4.48 nM, the “cAMP EC50 (1.0% HSA)” value [4] was 0.316 nM and the “cAMP Emax (1.0% HSA)” value [4] was 95.5%.

B8: Example 31 (peptide)
peptide: YXEGTXTSDXSIXLDXKAQXEFIXXLIEGGKSSGAPPPS
modifications: Aib2, αMeF(2F)6, 4Pal10, αMeL13, Orn16, Aib20, D-Glu24, αMeY25, K17 and K31: K(AEEA3-(γ-Glu)-CO-(CH2)14-CH3), C-terminal NH2
In the case of B8, the “EC50, cAMP” value [5] is reported as greater than 9950 nM and the “EC50, cAMP” value [6] is reported as 0.00157 nM.
